Positions count from the first letter of the chain named.
B1: BY6-3 (antibody, IgG1, V domains shown)
VH: QVQLVQSGSELKKPGASVKISCKASGYSFTNYGMNWVRQAPGQGLKWMGWINTNTGEPTYAEEFKGRFVFSLDTSVSTAYLQISSLKAEDTAVYYCARLGFGNAMDYWGQGTLVTVSS
VL: DIVMTQSPDSLAVSLGERATMNCKSSQTLLNSGNQKNYLTWYQQKPGQPPKLLIYWATTRESGVPDRFSGSGSGTDFTLTISSLQAEDVAVYYCQNDYTYPLTFGAGTKLEIK
B2: BY6-1 (antibody, IgG1, V domains shown)
VH: B1 VH
VL: B1 VL with T99S
B3: BY6-4 (antibody, IgG1, V domains shown)
VH: B1 VH
VL: B1 VL with Q35N, T99S

Key:
[1] = target: 人Claudin18.2 (human Claudin18.2, 密蛋白18.2) (human) (UniProt P56856); assay: relative binding activity against the control antibody, after strong-acid stress
[2] = target: 人Claudin18.2 (human Claudin18.2, 密蛋白18.2) (human) (UniProt P56856); assay: relative binding activity against the control antibody, after repeated freezing and thawing

Binder | 相对结合活性 (relative to the control antibody BY0-0) [1] | 相对结合活性 (relative to the control antibody BY0-0) [2]
B1 | 80% | 
B2 |  | > 80%
B3 | 80% | 

Source: patent CN113929780A
